Experimental data published in paper PMC4428678.

Target: His-tagged human CRMP-2 (residues 1-490) (human) (UniProt Q16555)
Assay: SPR

Substance: Recombinant human calmodulin (from UniProt P0DP23 1-149) (natural protein)
- Kd: 75 µM
